# T1: Unr CSD78 (A756-K922) (Drosophila, UniProt B7Z0E2 756-922)
# T1 sequence (looked up): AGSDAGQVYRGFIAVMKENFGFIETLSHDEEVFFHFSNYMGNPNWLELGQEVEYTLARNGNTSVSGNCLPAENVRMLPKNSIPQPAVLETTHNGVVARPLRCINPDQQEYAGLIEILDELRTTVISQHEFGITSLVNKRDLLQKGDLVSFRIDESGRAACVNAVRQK
# T2: Unr CSD789 (A756-D990) (Drosophila, UniProt B7Z0E2 756-990)
# T2 sequence (looked up): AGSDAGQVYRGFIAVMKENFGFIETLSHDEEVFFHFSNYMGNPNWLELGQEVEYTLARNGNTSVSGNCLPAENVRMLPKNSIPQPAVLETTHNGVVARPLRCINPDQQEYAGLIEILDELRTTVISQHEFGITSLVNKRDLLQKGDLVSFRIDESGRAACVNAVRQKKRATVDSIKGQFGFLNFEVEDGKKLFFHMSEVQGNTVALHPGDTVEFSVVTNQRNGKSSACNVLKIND
# Key:
# [1] = molecular target: T1, Unr CSD78 (A756-K922); experiment: NMR titration
# [2] = molecular target: T2, Unr CSD789 (A756-D990); experiment: NMR titration
binder,measurement,setting,value
pAbp RRM3 (G176-A263) (domain or fragment) not shown,binding result,[1],binds
same,binding result,[2],binds

# Reference: article PMC9976900 (Nucleic Acids Research, 2022)
